Article doi:10.1101/776187

Tests used:
[1] = biological target: dynactin (bovine (purified from bovine brain))
[2] = biological target: human cytoplasmic dynein (recombinant complex of DHC, DIC, DLIC, Tctex, Robl and LC8) (human) (UniProt Q14204)

B1: full-length Drosophila Bicaudal D F684I mutant (Dm BicD/F684I) (natural protein)
chain: MSSASNNGPSADQSVQDLQMEVERLTRELDQVSSASAQSAQYGLSLLEEKSALQQKCEELETLYDNTRHELDITQEALTKFQTSQKVTNKTGIEQEDALLNESAARETSLNLQIFDLENELKQLRHELERVRNERDRMLQENSDFGRDKSDSEADRLRLKSELKDLKFRETRMLSEYSELEEENISLQKQVSSLRSSQVEFEGAKHEIRRLTEEVELLNQQVDELANLKKIAEKQMEEALETLQGEREAKYALKKELDGHLNRESMYHISNLAYSIRSNMEDNASNNSDGEEENLALKRLEADLSTELKSPDGTKCDLFSEIHLNELKKLEKQLESMESEKTHLTANLREAQTSLDKSQNELQNFMSRLALLAAHVDALVQLKKQIDVKEQGKEGGQKKDELEQQLRALISQYANWFTLSAKEIDGLKTDIAELQKGLNYTDATTTLRNEVTNLKNKLLATEQKSLDLQSDVQTLTHISQNAGQSLGSARSTLVALSDDLAQLYHLVCTVNGETPTRVLLDHKTDDMSFENDSLTAIQSQFKSDVFIAKPQIVEDLQGLADSVEIKKYVDTVSDQIKYLKTAVEHTIDMNKHKIRSEGGDALEKVNTEEMEELQEQIVKLKSLLSVKREQIGTLRNVLKSNKQTAEVALTNLKSKYENEKIIVSDTMSKLRNELRLLKEDAATISSLRAMFAARCEEYVTQVDDLNRQLEAAEEEKKTLNQLLRLAVQQKLALTQRLEEMEMDREMRHVRRPMPAQRGTSGKSSFSTRPSSRNPASSNANPF
Question: With B1 as the binder, how does the processive run length of DDB^F684I on microtubules, single molecule TIRF [1] read?
Answer: 3.3 µm

Question: And the speed of DDB^F684I on microtubules, single molecule TIRF [1]?
Answer: 0.43 µm/s

Question: And the processive run length of DDB^F684I on microtubules, single molecule TIRF [2]?
Answer: 3.3 µm

Question: And the speed of DDB^F684I on microtubules, single molecule TIRF [2]?
Answer: 0.43 µm/s
